Assays:
[1] = Equilibrium uptake and desorption of Avidin and NeutrAvidin in cartilage disks; assay type: in vitro ADME, bovine
Text: Cartilage disks were harvested from the femoropatellar grooves of 1-2 week old bovine calf knee joints (obtained from Research 87, Hopkinton, Mass.) as described previously (Patwari et al., Arthritis Rheum, 2003). Briefly, cylindrical cartilage disks (3 mm or 6 mm diameter) were cored using a dermal punch and then sliced to obtain the top 1 mm of cartilage with intact superficial zone. Cartilage disks for all treatment groups were matched for depth and location along the joint surface. The disks were then pre-equilibrated in PBS (without Ca^2±/Mg^2±) supplemented with protease inhibitors (Complete Protease Cocktail tablet in 50 mL PBS, Roche Applied Science, IN) in a 37° C., 5% CO2 incubator for 24-48 h.
Equilibrium uptake of Avidin and NeutrAvidin: 3 mm diameter, 1 mm thick cartilage explants were incubated for specific times in 300 μl of known concentration (3 μM) of FITC-Avidin and FITC-NeutrAvidin, supplemented with protease inhibitors at 37° C. in a 96 well plate format. After removal from the absorption baths, the disks were rinsed, gently wiped and then incubated in 1× or 10×PBS supplemented with protease inhibitors for 24 h or longer as specified. At the end of the experiment, the surfaces of each disk were quickly blotted with Kimwipes and the wet weight was measured. The disks were then lyophilized and the dry weight was measured; the water weight was calculated from the tissue wet and dry weights. The fluorescence signal in the absorption and desorption baths was quantified using a plate reader (1400 Wallace Victor, PerkinElmer, MA); the solute content inside the cartilage disk was determined from the difference between the fluorescence reading of the absorption/desorption baths before and after incubation. […] The solute uptake ratio was calculated as the concentration of the FITC-solute in the cartilage (per intra-tissue water weight) normalized to the concentration of FITC-solute in the equilibration bath.

[2] = Intra-articular injection of Avidin or Neutravidin in rat knee joints: penetration, uptake and retention in joint tissues
Protocol: Intra-articular (i.a.) injections of 50 μl of 50 μM Avidin (pI 10.5, 66 kDa, diameter ˜7 nm) or Neutravidin (neutral at pH 7, 60 kDa, diameter ˜7 nm) conjugated with Texas Red (both from Invitrogen, CA) were administered in the right knee joints of healthy 18-20 weeks old Fischer-344 rats (Charles River Laboratories). Following the injection, rat knees were flexed and extended to distribute the injected solute throughout the intra-articular space. Contralateral left knees were used as controls. Avidin injected rats were sacrificed at 4 different time points (6 h, 1 d, 4 d, 7 d) and Neutravidin injected rats were sacrificed after 1 day. The following tissue types were extracted from each joint: articular cartilage removed from the patellar groove, femoral condyle and tibial plateau using a scalpel; medial and lateral menisci; i.a. ligaments (ACL & PCL); patellar and quadriceps tendons; and femoral bone. 6 rats were used per treatment condition for a total of 30 rats. Using a digital caliper (Fisher Scientific), the joint thickness was measured before and after the injection at each time point to check for joint swelling indicating an inflammatory response to the injection.
Tissue samples extracted from the rat joints injected with Avidin-Texas Red (Excitation at 595 nm and emission at 615 nm) and sacrificed at 6 h were imaged using a confocal microscope (OLYMPUS, FluoView FV1000) at 10× magnification by taking Z stacks. Images were taken in X-Y plane, which represents the surface through which Avidin diffused. 3D images were reconstructed using Z stacking (slice thickness˜4.5 μm) and cross-sections in the X-Z plane of these 3D images were taken.
Tissue samples from all treatment conditions were then desorbed in 10×PBS for 48 h in 37° C. incubator to disrupt electrostatic interactions and release Avidin/Neutravidin into the desorption bath. […] At the end of the experiment, tissue samples were removed from the bath, lyophilized and the dry weight was measured. Fluorescence signal from desorption bath was quantified using a plate reader (Synergy HT, BioTek). […] The solute uptake was calculated as the concentration of labeled solute in the tissue samples normalized by tissue dry weight.
The half-life of Avidin was calculated by fitting an exponential curve to the experimental data:
Where, C0 is the initial and C(t) is the final Avidin concentration in tissue after time t and λ is the decay constant.

[3] = One-way diffusion of solutes into cartilage half disks in transport chamber, confocal microscopy imaging; assay type: in vitro ADME, bovine; conditions: normal cartilage, 4 days
Text: Solute Types: Two types of 15 nm diameter (MW˜300 kDa) Quantum Dots (QD) were used: (i) positively charged, and (ii) charge-neutral; same concentration. Transport of FITC (MW˜300 Da, diam˜0.9 nm) and dextrans (Dex) conjugated with FITC (Sigma Aldrich) of different MW (˜8 kDa, diam˜4.3 nm; ˜40 kDa, diam˜10 nm) were also investigated.
Transport Studies: A special PMMA transparent transport chamber was designed to allow diffusion of solutes into only one side (superficial zone) of the cartilage disk. The chamber was treated with Casein to block non-specific binding of solutes to chamber surfaces. The equilibrated cartilage disks were then cut into halves and placed in the middle of the ‘slot chambers’ of the fixture. The chamber side facing the superficial zone was filled with ˜45 μl of solute-PBS solution; the other side was filled with 1×PBS alone. […]
Using a scalpel, a slice (100-200 μm thick) was then cut from the center of each disk (FIG. 1B). […] Appropriate filters were chosen to eliminate auto-fluorescence of cartilage at the settings used for imaging. […] To ensure proper image comparison, solute concentrations were chosen such that the FITC concentration in each solution was identical, thereby giving equal fluorescence intensities.

[4] = Non-equilibrium diffusive transport across cartilage disks (transport cell); assay type: in vitro ADME, bovine; conditions: free FITC added upstream at t=186 min
Protocol: Real-time measurement of diffusive transport of Avidin and NeutrAvidin through young bovine cartilage disks (with intact superficial zone) was measured using a diffusion chamber consisting of two compartments as described previously (Garcia et al., Arch Biochem Biophys, 2003). Groups of three cartilage disks (6 mm diameter, 400 μm thick) were clamped by O-rings between the two compartments of the diffusion chamber (with total exposed tissue area for transport of 0.28 cm^2/disk), such that solute transport from the upstream compartment into and across the cartilage disks, simultaneously, could occur only from the superficial zone of the cartilage (schematic shown in the inset of FIG. 14). The compartments were treated with casein to prevent non-specific adsorption of solutes to the chamber surfaces. […] Aliquots were taken from each chamber at different time intervals, and fluorescence was measured using a plate reader.
The compartment volume of 25 ml is approximately 1,000× larger than the volume of the cartilage plugs in the configuration of FIG. 14 (inset). […] This configuration thereby focuses on quantitation of steady state solute flux and assessment of effective solute diffusivity within cartilage. […]
[formula] where δ is the thickness of the cartilage disk (˜400 μm). DEFF for Avidin was calculated to be 3.8×10^−7 cm^2/s. […]

[5] = rabbit knee; cited from earlier work
[6] = pH 7
Text: For the non-covalent conjugation, drug was entrapped inside Avidin structure supra-molecularly, while an ester linker and/or pH sensitive hydrazone linker was utilized for the covalent conjugation.

[7] = Competitive binding of FITC-Avidin and unlabeled Avidin in cartilage (binding isotherm fit); set-up: species or system bovine; conditions: labeled Avidin ≦1 μM, no unlabeled Avidin, 3 day equilibration, 37° C.
Protocol: To test this hypothesis, competitive binding experiments were performed in which 3 mm diameter cartilage disks were equilibrated for 3 days in 300 μl buffer containing a fixed amount of (fluorescently labeled) FITC-Avidin (1 μM) and graded amounts of unlabeled Avidin (0, 10, 76, 100, and 203 μM). The disks were split into half disks to reduce the time needed for equilibration, which was performed in 96 well plates at 37° C. The uptake ratio, RU, was measured and plotted versus the total bath concentration of Avidin (labeled+unlabeled, FIG. 13), where RU is defined as the total concentration of Avidin inside the cartilage (bound (CB) plus free (CF)) per intra-tissue water weight, normalized to the Avidin concentration in the equilibration bath (CBath):
Labeled and unlabeled Avidin were held to partition into the cartilage identically. At very low concentration of the labeled Avidin (≦1 μM), a high uptake of ˜120 was observed. When unlabeled Avidin was added to the bath, both species (labeled and unlabeled) could compete for the same (constant) number of binding sites available in the tissue (site density NT). […] To model the data of FIG. 13, a first-order, bimolecular, reversible reaction was produced to describe binding of Avidin to a single dominant binding species within cartilage. A theoretical model was adopted, (Garcia et al., Arch Biochem Biophys, 2003) previously used for characterizing the binding of soluble insulin like growth factor-1 (IGF-1) to IGF-binding proteins (IGF-BPs) that are uniformly enmeshed and fixed within cartilage matrix. According to this model, the equilibrium molar concentration of free solute (CF), bound solute (CB), intra-tissue binding site density (NT) and the equilibrium dissociation constant (KEQ) are related by the binding isotherm:
[formula] which is similar in form to a Langmuir adsorption isotherm. […]
[formula] […] Thus, K is determined by both steric hindrance and electrostatic (Donnan) interactions. […]

NeutrAvidin: electrically neutral globular protein at pH 7, 60 kDa, diameter ~7 nm; neutral counterpart of Avidin [reference compound]
percent of absorbed solute diffused out of the cartilage ([1]; 1×PBS, within 1 day): About 50%
mean uptake ratio ([1]; 40% GAG-depleted cartilage (chondroitinase-ABC), 24 h): 0.55
partition coefficient KNeutrAvidin ([1]; estimated from the data of FIG. 12B): 0.44
mean uptake ratio ([1]; normal cartilage, 24 h): 0.28
mean uptake ratio ([1]; normal cartilage, 4 days): ~0.44
presence in rat cartilage and patellar tendon ([2]; 24 h after i.a. injection): no Neutravidin present
presence in meniscus, ligaments and quadriceps tendon ([2]; 24 h after i.a. injection, compared to Avidin): small but very insignificant amounts
detection in the femoral bone ([2]; any time point): Neither Avidin nor Neutravidin was detected
clearance from joint after i.a. injection ([2]; within 24 h): almost complete clearance
penetration into cartilage explant [3]: penetrated approximately half the sample thickness

fluorescein isothiocyanate [Fluorescein Isothiocyanate (FITC), reference compound]
diffusivity [4]: 2.8×10^−5 cm^2/s

albumin
Half-life [5]: 1.23 to 3.9 h

hydrazone linker: Avidin conjugated with dexamethasone through pH sensitive hydrazone linkage via biotinylated PEG (FIG. 21C, FIG. 24)
stability of linker [6]: extremely stable

Avidin-FITC: FITC-conjugated Avidin [reference compound]
uptake ratio RU [7]: ~120

Reference: patent US9289506B2, “Surface binding of nanoparticle based drug delivery to tissue” (Massachusetts Institute of Technology, priority 2013, dated 2016)
